Laboratory results reported in article PMC6348423, “Rapid Mapping of Protein Interactions Using Tag‐Transfer Photocrosslinkers” (Angewandte Chemie (International Ed. in English), 2018).
Ends that are not written are not given here. Peptide text beside a SMILES is read from it. * marks the point of attachment. MTS‑TFMD = trifluoromethyl phenyl diazirine photocrosslinker tag, disulfide-linked to Cys via MTS; MTS‑diazirine = alkyl diazirine tag, disulfide-linked to Cys via MTS; X1 = FC(F)(F)C1(c2ccc(CS*)cc2)N=N1; X2 = CC1(CCS*)N=N1

T1: MCL-1 (human, UniProt Q07820 1-350)
T1 chain: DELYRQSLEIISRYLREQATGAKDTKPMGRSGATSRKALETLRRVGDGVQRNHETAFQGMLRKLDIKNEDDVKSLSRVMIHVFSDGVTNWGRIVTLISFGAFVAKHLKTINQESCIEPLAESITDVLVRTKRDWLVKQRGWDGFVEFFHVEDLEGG

B1: BID_(80-102) M97C tagged with MTS-TFMD (peptide)
chain: EDIIRNIARHLAQVGDSC(MTS‑TFMD)DRSIP
B2: BID_(80-102) I86C tagged with MTS-diazirine (peptide)
peptide: EDIIRNC(MTS‑diazirine)ARHLAQVGDSMDRSIP
B3: BID_(80-102) I86C tagged with MTS-TFMD (peptide)
peptide: EDIIRNC(MTS‑TFMD)ARHLAQVGDSMDRSIP
B4: BID_(80-102) V93C tagged with MTS-diazirine (peptide)
peptide: EDIIRNIARHLAQC(MTS‑diazirine)GDSMDRSIP
B5: BID_(80-102) M97C tagged with MTS-diazirine (peptide)
chain: EDIIRNIARHLAQVGDSC(MTS‑diazirine)DRSIP
B6: BID_(80-102) S100C tagged with MTS-TFMD (peptide)
chain: EDIIRNIARHLAQVGDSMDRCIP
modifications: Cys100 disulfide-linked to MTS-TFMD (trifluoromethyl phenyl diazirine) tag; synthetic peptide, termini not stated in main text Limits not printed in the main text (supplement); 172-327 is the usual soluble MCL-1 construct for BH3 assays, close to the PDB 2KBW construct
B7: BID_(80-102) I83C tagged with MTS-TFMD (peptide)
chain: EDIC(MTS‑TFMD)RNIARHLAQVGDSMDRSIP
B8: BID_(80-102) S100C tagged with MTS-diazirine (peptide)
chain: EDIIRNIARHLAQVGDSMDRCIP
modifications: Cys100 disulfide-linked to MTS-diazirine (alkyl diazirine) tag; synthetic peptide, termini not stated in main text Limits not printed in the main text (supplement); 172-327 is the usual soluble MCL-1 construct for BH3 assays, close to the PDB 2KBW construct
B9: WT BID_(80-102) (peptide)
peptide: EDIIRNIARHLAQVGDSMDRSIP
modifications: Limits not printed in the main text (supplement); 172-327 is the usual soluble MCL-1 construct for BH3 assays, close to the PDB 2KBW construct
B10: BID_(80-102) I83C tagged with MTS-diazirine (peptide)
chain: EDIC(MTS‑diazirine)RNIARHLAQVGDSMDRSIP

Molecular target: T1, MCL-1
Assay: FP
Conditions: not given
For B1, the EC50 was 255 nM.
B2 gave an EC50 of 5510 nM.
Molecule B3 has an EC50 of 1410 nM.
B4 showed an EC50 of 8750 nM.
Work on B5 yielded an EC50 of 422 nM.
B6 showed an EC50 of 287 nM.
Work on B7 yielded an EC50 of 338 nM.
B8 showed an EC50 of 360 nM.
B9 showed an EC50 of 460 nM.
With B10 the EC50 was 406 nM.

These molecules were tested against T2, MCL-1 (Homo sapiens, UniProt Q07820) (assay: Photo-crosslinking of labelled BID80-102 peptides to MCL-1, SDS-PAGE band intensity). Conditions: 20 μM labelled peptide + 20 μM MCL-1, TBS pH 7.6; 365 nm UV LED, 1 min; SDS-PAGE band intensity of crosslinked vs non-crosslinked MCL-1; value ± SD of three repeats; SD.
T2 construct: made in house
T2 sequence (Q07820 whole entry): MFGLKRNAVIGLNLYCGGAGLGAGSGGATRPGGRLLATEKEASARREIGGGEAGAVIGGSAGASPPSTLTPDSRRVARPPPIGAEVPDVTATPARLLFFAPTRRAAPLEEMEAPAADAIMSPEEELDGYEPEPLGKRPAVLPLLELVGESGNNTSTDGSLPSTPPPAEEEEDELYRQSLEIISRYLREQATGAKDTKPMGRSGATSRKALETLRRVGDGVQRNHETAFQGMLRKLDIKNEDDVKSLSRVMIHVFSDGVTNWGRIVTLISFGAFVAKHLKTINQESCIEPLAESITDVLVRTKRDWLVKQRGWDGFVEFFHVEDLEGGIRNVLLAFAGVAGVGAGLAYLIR
Procedure: Cross-linking experiments
For all irradiation methods, samples were prepared in the following way. For crosslinking of MCL-1/BID80-102, 20 μL of a solution containing MTS-diazirine or MTS-TFMD labelled BID80-102 peptide (20 μM) and MCL-1 (20 μM) in buffer 50 mM Tris-HCl, 150 mM NaCl (TBS) pH 7.6 was prepared. […]
This was then placed under a covered LF-206.LS 6 W 365 nm lamp (Uvitec) at a distance of 12 mm from the source for different times up to 30 min. For UV LED chip experiments, acrylic chip chambers were washed with TBS pH 7.6 buffer and 33 µL of sample was added. These were then clamped into the chip holder and irradiated with the 365 nm LED for up to 30 s. A pipette was used to remove the sample from the chip via the lower filling hole. For UV LED tube experiments, 30-130 µL of sample was added to a thin-walled PCR tube and placed inside a 0.5 mL microfuge tube which itself was in a 1.5 mL microfuge tube that had been wrapped in aluminium foil (to reflect the UV irradiation within the containers). Samples were irradiated with the 365 nm LED for 30 s. To crosslink MCL-1 BID80-102, samples were irradiated using this apparatus for 1 min.
Separation and enrichment of cross-linked products
To separate and/or enrich crosslinked samples three methods were used as described in the main text.
Table S1: Affinity (EC50) of labelled BID80-102 peptides to MCL-1 as determined by competition fluorescence anisotropy assay. Crosslinking efficiency of labelled BID80-102 peptides to MCL-1 based on the SDS-PAGE band intensity of crosslinked and non-crosslinked […]
The values and standard deviations are results of three repeats. n.d = not determined as binding was too weak to enable an accurate fit to be obtained.
BID peptide EC50 for affinity to MCL-1 (nM) Crosslinked Mcl-1 (%)
For `CC[C@H](C)[C@H](NC(=O)[C@H](CC(N)=O)NC(=O)[C@H](CCCNC(=N)N)NC(=O)[C@H](CSSCc1ccc(C2(C(F)(F)F)N=N2)cc1)NC(=O)[C@@H](NC(=O)[C@H](CC(=O)O)NC(=O)[C@H](CCC(=O)O)NC(C)=O)[C@@H](C)CC)C(=O)N[C@@H](C)C(=O)N[C@@H](CCCNC(=N)N)C(=O)N[C@@H](Cc1c[nH]cn1)C(=O)N[C@@H](CC(C)C)C(=O)N[C@@H](C)C(=O)N[C@@H](CCC(N)=O)C(=O)N[C@H](C(=O)NCC(=O)N[C@@H](CC(=O)O)C(=O)N[C@@H](CO)C(=O)N[C@@H](CCSC)C(=O)N[C@@H](CC(=O)O)C(=O)N[C@@H](CCCNC(=N)N)C(=O)N[C@@H](CO)C(=O)N[C@H](C(=O)N[C@@H](Cc1c[nH]c2ccccc12)C(N)=O)[C@@H](C)CC)C(C)C` [MTS-TMFD labelled I83C] (Ac-EDIC(X1)RNIARHLAQVGDSMDRSIW-NH2), the “Crosslinked Mcl-1 (crosslinking efficiency)” value was 51 ± 6%.
`CC[C@H](C)[C@H](NC(=O)[C@H](CO)NC(=O)[C@H](CCCNC(=N)N)NC(=O)[C@H](CC(=O)O)NC(=O)[C@H](CCSC)NC(=O)[C@H](CO)NC(=O)[C@H](CC(=O)O)NC(=O)CNC(=O)[C@@H](NC(=O)[C@H](CCC(N)=O)NC(=O)[C@H](C)NC(=O)[C@H](CC(C)C)NC(=O)[C@H](Cc1c[nH]cn1)NC(=O)[C@H](CCCNC(=N)N)NC(=O)[C@H](C)NC(=O)[C@H](CSSCc1ccc(C2(C(F)(F)F)N=N2)cc1)NC(=O)[C@H](CC(N)=O)NC(=O)[C@H](CCCNC(=N)N)NC(=O)[C@@H](NC(=O)[C@@H](NC(=O)[C@H](CC(=O)O)NC(=O)[C@H](CCC(=O)O)NC(C)=O)[C@@H](C)CC)[C@@H](C)CC)C(C)C)C(=O)N[C@@H](Cc1c[nH]c2ccccc12)C(N)=O` [MTS-TMFD labelled I86C] (Ac-EDIIRNC(X1)ARHLAQVGDSMDRSIW-NH2) was tested, and the “Crosslinked Mcl-1 (crosslinking efficiency)” value was 53 ± 1%.
In the case of `CC[C@H](C)[C@H](NC(=O)[C@H](CC(N)=O)NC(=O)[C@H](CCCNC(=N)N)NC(=O)[C@@H](NC(=O)[C@@H](NC(=O)[C@H](CC(=O)O)NC(=O)[C@H](CCC(=O)O)NC(C)=O)[C@@H](C)CC)[C@@H](C)CC)C(=O)N[C@@H](C)C(=O)N[C@@H](CCCNC(=N)N)C(=O)N[C@@H](Cc1c[nH]cn1)C(=O)N[C@@H](CC(C)C)C(=O)N[C@@H](C)C(=O)N[C@@H](CCC(N)=O)C(=O)N[C@H](C(=O)NCC(=O)N[C@@H](CC(=O)O)C(=O)N[C@@H](CO)C(=O)N[C@@H](CSSCc1ccc(C2(C(F)(F)F)N=N2)cc1)C(=O)N[C@@H](CC(=O)O)C(=O)N[C@@H](CCCNC(=N)N)C(=O)N[C@@H](CO)C(=O)N[C@H](C(=O)N[C@@H](Cc1c[nH]c2ccccc12)C(N)=O)[C@@H](C)CC)C(C)C` [MTS-TMFD labelled M97C] (Ac-EDIIRNIARHLAQVGDSC(X1)DRSIW-NH2), the “Crosslinked Mcl-1 (crosslinking efficiency)” value is reported as 26 ± 1%.
`CC[C@H](C)[C@H](NC(=O)[C@H](CC(N)=O)NC(=O)[C@H](CCCNC(=N)N)NC(=O)[C@@H](NC(=O)[C@@H](NC(=O)[C@H](CC(=O)O)NC(=O)[C@H](CCC(=O)O)NC(C)=O)[C@@H](C)CC)[C@@H](C)CC)C(=O)N[C@@H](C)C(=O)N[C@@H](CCCNC(=N)N)C(=O)N[C@@H](Cc1c[nH]cn1)C(=O)N[C@@H](CC(C)C)C(=O)N[C@@H](C)C(=O)N[C@@H](CCC(N)=O)C(=O)N[C@H](C(=O)NCC(=O)N[C@@H](CC(=O)O)C(=O)N[C@@H](CO)C(=O)N[C@@H](CCSC)C(=O)N[C@@H](CC(=O)O)C(=O)N[C@@H](CCCNC(=N)N)C(=O)N[C@@H](CSSCc1ccc(C2(C(F)(F)F)N=N2)cc1)C(=O)N[C@H](C(=O)N[C@@H](Cc1c[nH]c2ccccc12)C(N)=O)[C@@H](C)CC)C(C)C` [MTS-TMFD labelled S100C] was tested, and the “Crosslinked Mcl-1 (crosslinking efficiency)” value was 31 ± 3%.
For `CC[C@H](C)[C@H](NC(=O)[C@H](CC(N)=O)NC(=O)[C@H](CCCNC(=N)N)NC(=O)[C@H](CSSCCC1(C)N=N1)NC(=O)[C@@H](NC(=O)[C@H](CC(=O)O)NC(=O)[C@H](CCC(=O)O)NC(C)=O)[C@@H](C)CC)C(=O)N[C@@H](C)C(=O)N[C@@H](CCCNC(=N)N)C(=O)N[C@@H](Cc1c[nH]cn1)C(=O)N[C@@H](CC(C)C)C(=O)N[C@@H](C)C(=O)N[C@@H](CCC(N)=O)C(=O)N[C@H](C(=O)NCC(=O)N[C@@H](CC(=O)O)C(=O)N[C@@H](CO)C(=O)N[C@@H](CCSC)C(=O)N[C@@H](CC(=O)O)C(=O)N[C@@H](CCCNC(=N)N)C(=O)N[C@@H](CO)C(=O)N[C@H](C(=O)N[C@@H](Cc1c[nH]c2ccccc12)C(N)=O)[C@@H](C)CC)C(C)C` [MTS-diazirine labelled I83C] (Ac-EDIC(X2)RNIARHLAQVGDSMDRSIW-NH2), the “Crosslinked Mcl-1 (crosslinking efficiency)” value was 19 ± 2%.
`CC[C@H](C)[C@H](NC(=O)[C@H](CO)NC(=O)[C@H](CCCNC(=N)N)NC(=O)[C@H](CC(=O)O)NC(=O)[C@H](CCSC)NC(=O)[C@H](CO)NC(=O)[C@H](CC(=O)O)NC(=O)CNC(=O)[C@@H](NC(=O)[C@H](CCC(N)=O)NC(=O)[C@H](C)NC(=O)[C@H](CC(C)C)NC(=O)[C@H](Cc1c[nH]cn1)NC(=O)[C@H](CCCNC(=N)N)NC(=O)[C@H](C)NC(=O)[C@H](CSSCCC1(C)N=N1)NC(=O)[C@H](CC(N)=O)NC(=O)[C@H](CCCNC(=N)N)NC(=O)[C@@H](NC(=O)[C@@H](NC(=O)[C@H](CC(=O)O)NC(=O)[C@H](CCC(=O)O)NC(C)=O)[C@@H](C)CC)[C@@H](C)CC)C(C)C)C(=O)N[C@@H](Cc1c[nH]c2ccccc12)C(N)=O` [MTS-diazirine labelled I86C] (Ac-EDIIRNC(X2)ARHLAQVGDSMDRSIW-NH2) was tested, and the “Crosslinked Mcl-1 (crosslinking efficiency)” value was 16 ± 2%.
